The series concerns the molecule itself. Kind of series: self-association (homodimer) seen on SDS-PAGE / Western blot after nickel affinity purification. Here is the method: In a process of Western Blot, Gel block of samples from the Electrophoresis was electro-transferred to NC membrane at 100 V for 90 min. The NC membrane was then washed with TBST for three times, and blocked with 5% skim milk on a shaker for 2 h. After blocking, the NC membrane was then washed with TBST for three times, and incubated with GPER antibody (Invitrogen, PA5-28647) overnight. After that, the NC membrane was then washed with TBST for three times, and incubated with secondary antibody (HRP-labeled Goat Anti-Rabbit IgG, ABclonal, AS014, BR) at room temperature for 3 h, washed with TBST for three times, visualized the result in the dark room with DAB.

B1: recombinant protein of GPER (G protein-coupled estrogen receptor) (receptor)
chain: LSHPLLGTALANGTGELSEHQQYVIGLFLSCLYTIFLFPIGFVGNILILVVNISFREKMTIPDLYFINLAVADLILVADSLIEVFNLHERYYDIAVLCTFMSLFLQVNMYSSVFFLTWMSFDRYIALARAMRCSLFRTKHHARLSCGLIWMASVSATLVPFTAVHLQHTDEACFCFADVREVQWLEVTLGFIVPFAIIGLCYSLIVRVLVRAHRMKKYTCTVCGYIYNPEDGDPDNGVNPGTDFKDIPDDWVCPLCGVGKDQFEEVEEHRGLRPRRQKALRMILAVVLVFFVCWLPENVFISVHLLQRTQPGAAPCKQSFRHAHPLTGHIVNLAAFSNSCLNPLIYSFLGETFRDKLRLYIEQKTNL
notes: The source plasmid is wild-type GPER (pDNR-Dual, BC011634, HsCD00005110); The purified protein is reported as monomer and dimer; also called GPER protein
On to B1, for which the binding result is given as “binds”.
